{"source": "patent US20080292619", "target": "recombinant human IGF-BP3 (GT2675 produced by GT) (UniProt P17936)", "sequence (P17936 28-291)": "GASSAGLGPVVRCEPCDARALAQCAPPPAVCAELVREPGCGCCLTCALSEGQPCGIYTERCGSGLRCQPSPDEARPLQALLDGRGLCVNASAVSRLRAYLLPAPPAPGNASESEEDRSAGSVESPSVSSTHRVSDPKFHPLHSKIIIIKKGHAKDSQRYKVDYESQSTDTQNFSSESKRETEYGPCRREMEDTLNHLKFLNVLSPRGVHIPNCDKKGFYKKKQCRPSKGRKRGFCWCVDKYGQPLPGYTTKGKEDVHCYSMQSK", "data": [{"substance": "human meltrin α-STFLAG after cleavage of the prodomain with thrombin (mature meltrin α having the prodomain deleted, 68 kDa)", "values": [{"measurement": "digestion of rhIGF-BP3 by meltrin α (SDS-PAGE and western blotting of rhIGF-BP3)", "value": "the band corresponding to rhIGF-BP3 disappeared in the case of the meltrin α having the prodomain cleaved"}]}]}
